For 79 sequences, switch fluorescence ratio results are on record in the supplement of paper PMC10126150.

± gives the standard deviation of the averaged measurements.

The data set deals with ATP. The experiment in a line: switch fluorescence ratio, 500 uM ATP over buffer (Cy3 cluster intensity, sum of 5 cycles each) (fold (ratio)); higher = stronger signal-on switching upon ATP binding; sequences stand for … in TCGTCGGCAGCGTCAGATGTGTATAAGAGACAGTTTTTTTTTTTTTTTTTTTTTTTTT…TC. The conditions noted are these: aptamer strand: ATP DNA aptamer (quencher-CACCTGGGGGAGTATTGCGGAGGAAGG + anchor), 100 nM annealed; ATP concentration: 500 uM. A digest of the protocol: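 The quencher-labelled ATP aptamer, at 100 nM, was annealed to Cy3-labelled switching-strand clusters on a modified Illumina MiSeq flow-cell. The clusters were imaged in selection buffer, then after 15 min with 500 uM ATP at 22 °C, and this buffer/ATP cycle ran five times with NaOH stripping and re-annealing between runs. Per-cluster fluorescence ratios, summed target-cycle over summed buffer-cycle Cy3 intensity, were averaged per switch-domain sequence. Clusters outside 100-1000 RFU were excluded.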
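Note: ATP exposure 15 min at 22 °C before imaging.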

As to TGCCATTGGG, the switch fluorescence ratio came out at 1.08 ± 0.12. The result for TATTAACATC reads 1.04 ± 0.014; that for GATGTTTTCT, 0.982 ± 0.054; that for GAGAGCTTGT, 0.956 ± 0.027. The result for AGTCGCCTTT reads 1.02 ± 0.056.

On to TTCGGTTTTG, for which the switch fluorescence ratio came out at 0.993 ± 0.031. As for TCCACAGTGG, the switch fluorescence ratio turned out to be 1.35 ± 0.41. As for GTTATAGGGT, the switch fluorescence ratio worked out at 1.01 ± 0.02. The result for TTGAGTGGTT reads 1.01 ± 0.092; that for TAGCGGGGCG, 0.9881 ± 0.0061.

Turning to CGGGAAGTTT, the switch fluorescence ratio was 0.999 ± 0.032. The result for AGCGGTGGGA reads 1.02 ± 0.032; that for CCCGTAGGCT, 0.973 ± 0.014; that for CCTAGCATGG, 2.05 ± 0.21. The result for GGGTATGGGA reads 0.99 ± 0.017; that for GGAGAGTGGT, 1.02 ± 0.023. Take ATAGTTTAGG: the switch fluorescence ratio turned out to be 1.016 ± 0.0076. The result for CGACAAGCTT reads 1.03 ± 0.016; that for TAGTATTTAT, 1.02 ± 0.044. The result for CGGGTATAGG reads 1.013 ± 0.01. The result for TGTCGCTCGT reads 0.992 ± 0.043; that for TACTACTATT, 1.03 ± 0.016. Consider TTGGGGCGCG, for which the switch fluorescence ratio amounted to 0.989 ± 0.051. For AGATTGTATG, the switch fluorescence ratio is 1.01 ± 0.039. Regarding GTACTTCTGT, the switch fluorescence ratio is 0.96 ± 0.014. With GAGCCCAGGG, the switch fluorescence ratio stood at 1.96 ± 0.82. As to TCGTTTTGTT, the switch fluorescence ratio is 0.975 ± 0.051. In the case of ATGGACAGGC, the switch fluorescence ratio was found to be 0.912 ± 0.014.

As to ATCTGGTGCA, the switch fluorescence ratio was found to be 1.055 ± 0.0059.

For the sequence TTGGCGTATC, the switch fluorescence ratio stood at 0.946 ± 0.041. The result for TGTTTGTTTG reads 1 ± 0.036. The result for ATAAGCCTGG reads 1.01 ± 0.041.

Take AGAAGTACGC: the switch fluorescence ratio came out at 1.17 ± 0.1. The result for TGGGGACTCC reads 0.997 ± 0.032. The result for TGCAGGGTTT reads 0.9906 ± 0.0082.

For TTCAGATACC, the switch fluorescence ratio worked out at 1.04 ± 0.017. For CGGAGGGGTG, the switch fluorescence ratio came to 1.02 ± 0.022. For the sequence TCAGGTTCGT, the switch fluorescence ratio came to 0.987 ± 0.01. The result for ATTGGGTTTT reads 0.999 ± 0.022. The result for TTACTACGGC reads 1.09 ± 0.021; that for TAAGGGTTTA, 1.06 ± 0.1; that for TGGAAGAGGC, 1.47 ± 0.64. The result for TCGAAGTGAA reads 1.09 ± 0.018. As to CTCATAGCGG, the switch fluorescence ratio stood at 1.02 ± 0.029.

As for ACTTGGGATG, the switch fluorescence ratio was found to be 0.982 ± 0.037.

On to CTGCTAATAT, for which the switch fluorescence ratio was 1.73 ± 0.14. Take TTGAGGGACT: the switch fluorescence ratio turned out to be 1.01 ± 0.018. GCATTTGGTT: the switch fluorescence ratio is 1.01 ± 0.012. The result for GGGTGGTTGG reads 0.999 ± 0.0088; that for GCGTTTTTCA, 0.9801 ± 0.0094; that for GGCGGTATAA, 1.01 ± 0.025.

Consider TGCCTCTAGA, for which the switch fluorescence ratio turned out to be 1.1 ± 0.044. The result for CGGGAGCGGA reads 0.995 ± 0.018. The result for TTAGTCGTGC reads 1.01 ± 0.026; that for TGTTTATTTA, 0.983 ± 0.0018; that for TTTAAGAGCG, 1.02 ± 0.013. As for TGTTGAGCAT, the switch fluorescence ratio came to 1.09 ± 0.089. The result for ATGAGTCTAA reads 0.992 ± 0.011. The result for ATCGCTTACA reads 1.02 ± 0.028. The result for TTACTTAGGT reads 1.03 ± 0.068.

Take CTGGGGGTTA: the switch fluorescence ratio came to 0.999 ± 0.059. The result for TAAGTTTCCT reads 1.07 ± 0.03; that for AGTTTGGATA, 0.97 ± 0.028; that for TTTTCCTCGC, 2.86 ± 0.27. The result for AAGTCTTTCG reads 1.01 ± 0.012; that for CGGGTAAGTG, 0.97 ± 0.014. The result for GTTGCCTTCA reads 1.14 ± 0.035; that for GAATTTTGCG, 0.999 ± 0.021.

Regarding AGGTCCGCGA, the switch fluorescence ratio is 2.62 ± 0.17. The result for ATGACAGCGG reads 1.01 ± 0.11. Consider GAGTTGTGGG, for which the switch fluorescence ratio is 0.993 ± 0.014. The result for TGTAAGGGTG reads 0.974 ± 0.065; that for AAAACGACCC, 1.11 ± 0.07. The result for TTTTTTATCC reads 1.03 ± 0.089; that for CCAATGGTGG, 1.01 ± 0.043. In the case of GGGAAGGGGA, the switch fluorescence ratio turned out to be 1.04 ± 0.12. The result for TTTTGTAATT reads 1.1 ± 0.2; that for TTAACGGGCT, 1.01 ± 0.048; that for CAGGTTAGGT, 1.004 ± 0.01.
